This is an account of results in PMC4775227, “Molecular mechanism of thermosensory function of human heat shock transcription factor Hsf1” (eLife, 2016).

For orientation: stoichiometry N means a count of units in the complex or per binding partner. The Kd is the equilibrium constant for the complex coming apart.

The target of data set [1] is T1, human heat shock transcription factor Hsf1, wild type (human), Q00613.
T1 chain: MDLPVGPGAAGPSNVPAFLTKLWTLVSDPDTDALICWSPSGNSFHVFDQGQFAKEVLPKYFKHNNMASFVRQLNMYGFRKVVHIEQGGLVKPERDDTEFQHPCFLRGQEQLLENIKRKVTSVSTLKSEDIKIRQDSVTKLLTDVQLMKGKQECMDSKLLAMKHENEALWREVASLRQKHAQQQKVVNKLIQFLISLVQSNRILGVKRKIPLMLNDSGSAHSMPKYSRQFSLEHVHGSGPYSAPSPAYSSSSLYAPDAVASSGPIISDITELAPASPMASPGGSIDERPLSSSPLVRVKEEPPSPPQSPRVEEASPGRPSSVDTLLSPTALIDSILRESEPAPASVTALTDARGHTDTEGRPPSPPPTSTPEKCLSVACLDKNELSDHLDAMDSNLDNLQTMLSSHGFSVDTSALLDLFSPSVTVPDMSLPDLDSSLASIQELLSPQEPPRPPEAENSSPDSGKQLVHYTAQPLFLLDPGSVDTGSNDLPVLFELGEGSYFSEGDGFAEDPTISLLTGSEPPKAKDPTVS
Kind of data set: SEC; S200 HiLoad 16/60 in Hsf1-buffer (25 mM Hepes pH 7.4, 150 mM NaCl, 10% glycerol, 2 mM DTT), 4°C, after Ni-IDA and cleavage of the SUMO tag. Particulars: remark: other sources report otherwise. (In general: SEC sorts molecules by how far they enter the pores of the column.)

For data set [2], the target named is T1, human heat shock transcription factor …. Kind of data set: HDX-MS; kinetics: 5 µM Hsf1 heat-shocked 10-1000 s at 35, 37, 39 or 42°C, then 30 s in D2O at 20°C; single exponential fits of the low-exchanging fraction. The note with it: remark: other sources report otherwise.
For data set [3] the target is unchanged. Kind of data set: native gel or EMSA; blue native polyacrylamide gel; monomeric Hsf1 after heat shock (42°C; pre-incubation at different temperatures for 10 min), Hsf1-buffer; also detected by immunoblot with Hsf1 antiserum. Particulars: remark: other sources report otherwise. On the technique in general: A gel shift assay detects complexes by their altered migration in electrophoresis.

The target is the same in data set [4]. Kind of data set: HDX-MS + fluorescence polarisation; monomer to dimer; fit of the quadratic solution of the law of mass action to Tm values (10 min incubation, wild type) against Hsf1 concentration, assuming the fraction of dimer determines Tm; rough estimate. The note with it: remark: other sources report otherwise.
Data set [5] concerns the molecule itself. Kind of data set: HDX-MS; 5 µM Hsf1 or mutant in Hsf1-buffer pre-incubated 10 or 30 min at 20-42°C, diluted 1:20 into D2O buffer, 30 s at 20°C, quenched, online pepsin, LC-MS.

Several values for one entry are separate records, joined by “and”; a condition that tells them apart may be missing. Equal entries are not always repeated.

B1: human heat shock transcription factor Hsf1, wild type, Q00613 1-529 (natural protein)
chain: MDLPVGPGAAGPSNVPAFLTKLWTLVSDPDTDALICWSPSGNSFHVFDQGQFAKEVLPKYFKHNNMASFVRQLNMYGFRKVVHIEQGGLVKPERDDTEFQHPCFLRGQEQLLENIKRKVTSVSTLKSEDIKIRQDSVTKLLTDVQLMKGKQECMDSKLLAMKHENEALWREVASLRQKHAQQQKVVNKLIQFLISLVQSNRILGVKRKIPLMLNDSGSAHSMPKYSRQFSLEHVHGSGPYSAPSPAYSSSSLYAPDAVASSGPIISDITELAPASPMASPGGSIDERPLSSSPLVRVKEEPPSPPQSPRVEEASPGRPSSVDTLLSPTALIDSILRESEPAPASVTALTDARGHTDTEGRPPSPPPTSTPEKCLSVACLDKNELSDHLDAMDSNLDNLQTMLSSHGFSVDTSALLDLFSPSVTVPDMSLPDLDSSLASIQELLSPQEPPRPPEAENSSPDSGKQLVHYTAQPLFLLDPGSVDTGSNDLPVLFELGEGSYFSEGDGFAEDPTISLLTGSEPPKAKDPTVS
For the molecule B1, in data set [1], the stoichiometry N is 2 and 3. In data set [2], this molecule had a rate of increase of the low-exchanging HR-A/B population (trimerization) at 35°C of 0.0018 s⁻¹, a rate of increase of the low-exchanging HR-A/B population (trimerization) at 37°C of 0.0033 s⁻¹, a rate of increase of the low-exchanging HR-A/B population (trimerization) at 39°C of 0.0094 s⁻¹ and a rate of increase of the low-exchanging HR-A/B population (trimerization) at 42°C of 0.016 s⁻¹. The same molecule showed a stoichiometry N in data set [3] of 3. In addition, the Kd in data set [4] is 330 nM.

B2: human Hsf1-S307D (natural protein, UniProt Q00613 1-529, looked up)
chain: MDLPVGPGAAGPSNVPAFLTKLWTLVSDPDTDALICWSPSGNSFHVFDQGQFAKEVLPKYFKHNNMASFVRQLNMYGFRKVVHIEQGGLVKPERDDTEFQHPCFLRGQEQLLENIKRKVTSVSTLKSEDIKIRQDSVTKLLTDVQLMKGKQECMDSKLLAMKHENEALWREVASLRQKHAQQQKVVNKLIQFLISLVQSNRILGVKRKIPLMLNDSGSAHSMPKYSRQFSLEHVHGSGPYSAPSPAYSSSSLYAPDAVASSGPIISDITELAPASPMASPGGSIDERPLSSSPLVRVKEEPPSPPQDPRVEEASPGRPSSVDTLLSPTALIDSILRESEPAPASVTALTDARGHTDTEGRPPSPPPTSTPEKCLSVACLDKNELSDHLDAMDSNLDNLQTMLSSHGFSVDTSALLDLFSPSVTVPDMSLPDLDSSLASIQELLSPQEPPRPPEAENSSPDSGKQLVHYTAQPLFLLDPGSVDTGSNDLPVLFELGEGSYFSEGDGFAEDPTISLLTGSEPPKAKDPTVS
notes: heat shock transcription factor 1 (Hsf1), human, phosphomimetic variant S307D; Probably made and purified as the wild type (6xHis-SUMO fusion in E. coli, tag cleaved); also called phosphomimetic Hsf1 variant
On to B2, for which the binding result in data set [5] is given as “binds”.

B3: human Hsf1-S303D (natural protein, UniProt Q00613 1-529, looked up)
chain: MDLPVGPGAAGPSNVPAFLTKLWTLVSDPDTDALICWSPSGNSFHVFDQGQFAKEVLPKYFKHNNMASFVRQLNMYGFRKVVHIEQGGLVKPERDDTEFQHPCFLRGQEQLLENIKRKVTSVSTLKSEDIKIRQDSVTKLLTDVQLMKGKQECMDSKLLAMKHENEALWREVASLRQKHAQQQKVVNKLIQFLISLVQSNRILGVKRKIPLMLNDSGSAHSMPKYSRQFSLEHVHGSGPYSAPSPAYSSSSLYAPDAVASSGPIISDITELAPASPMASPGGSIDERPLSSSPLVRVKEEPPDPPQSPRVEEASPGRPSSVDTLLSPTALIDSILRESEPAPASVTALTDARGHTDTEGRPPSPPPTSTPEKCLSVACLDKNELSDHLDAMDSNLDNLQTMLSSHGFSVDTSALLDLFSPSVTVPDMSLPDLDSSLASIQELLSPQEPPRPPEAENSSPDSGKQLVHYTAQPLFLLDPGSVDTGSNDLPVLFELGEGSYFSEGDGFAEDPTISLLTGSEPPKAKDPTVS
notes: heat shock transcription factor 1 (Hsf1), human, phosphomimetic variant S303D; Probably made and purified as the wild type (6xHis-SUMO fusion in E. coli, tag cleaved); also called phosphomimetic Hsf1 variant
Consider B3, for which the binding result in data set [5] is “binds”.
